Biological target: Recombinant His-tagged mouse CD36.ECD protein (Sino Biological) (mouse) (UniProt Q08857)
Assay: ELISA, coated mouse CD36.ECD (FIG. 1D)

Recombinant His-tagged mouse CD36.ECD protein (Sino Biological) (mouse), sequence (Q08857 30-439 limits assumed): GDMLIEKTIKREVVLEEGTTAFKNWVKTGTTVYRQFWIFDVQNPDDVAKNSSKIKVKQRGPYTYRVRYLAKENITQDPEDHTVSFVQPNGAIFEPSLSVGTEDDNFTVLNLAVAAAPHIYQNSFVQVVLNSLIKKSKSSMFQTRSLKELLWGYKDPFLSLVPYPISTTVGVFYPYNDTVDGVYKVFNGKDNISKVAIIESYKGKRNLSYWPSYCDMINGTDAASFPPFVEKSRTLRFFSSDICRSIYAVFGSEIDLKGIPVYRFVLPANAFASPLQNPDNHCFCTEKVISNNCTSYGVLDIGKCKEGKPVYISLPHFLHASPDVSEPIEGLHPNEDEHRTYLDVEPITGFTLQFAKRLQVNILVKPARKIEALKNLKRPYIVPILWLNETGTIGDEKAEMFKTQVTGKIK

Substance: D2712 (clone CRF D-2712, BD Biosciences, US) (antibody)
- EC50: 0.93 nM
